Here are results for three molecules from paper PMC5802837, “Lymphocyte-specific protein 1 regulates mechanosensory oscillation of podosomes and actin isoform-based actomyosin symmetry breaking” (Nature Communications, 2018).

What all share (assay): co-IP; anti-GFP immunoprecipitation (µMACS anti-GFP Microbeads) from lysates of macrophages expressing GFP-fused constructs (500 mM NaCl, 2% Triton X-100, 50 mM Tris-HCl pH 8.0), washes with RIPA and high-salt RIPA; GFP alone as control; western blot of endogenous partners, densitometry
(In general: In western blotting, separated proteins are transferred to a membrane and probed.)

The target of assay [1] is supervillin construct SV1-830-GFP (UniProt O46385).
The target in assay [2] is GFP-fused full length LSP1 (human) (UniProt P33241).
The target in assay [3] is T1, supervillin construct SV1-830-GFP (UniProt O46385-2 1-830).
T1 construct: supervillin, N-terminal region, residues 1-830; as far as recalled the Luna laboratory constructs are bovine supervillin; also called GFP-SV1-830; GFP-supervillin 1-830; source: primary human macrophages, transfected, in lysate
As to conditions: partners not purified.

As for “Ser19 phosphorylated myosin light chain (pMLC), endogenous (from UniProt P24844 1-172) (natural protein)”, the coprecipitated amount relative to LSP1-GFP in assay [1] turned out to be 9 fold.

Regarding “α-cardiac actin, endogenous (from UniProt P68032 1-377) (natural protein)”, in assay [2], the coprecipitated α-cardiac actin relative to SV1-830-GFP stood at 0.33 fold.

B1: myosin IIA, endogenous (natural protein, UniProt P35579 1-1960, looked up)
chain: MAQQAADKYLYVDKNFINNPLAQADWAAKKLVWVPSDKSGFEPASLKEEVGEEAIVELVENGKKVKVNKDDIQKMNPPKFSKVEDMAELTCLNEASVLHNLKERYYSGLIYTYSGLFCVVINPYKNLPIYSEEIVEMYKGKKRHEMPPHIYAITDTAYRSMMQDREDQSILCTGESGAGKTENTKKVIQYLAYVASSHKSKKDQGELERQLLQANPILEAFGNAKTVKNDNSSRFGKFIRINFDVNGYIVGANIETYLLEKSRAIRQAKEERTFHIFYYLLSGAGEHLKTDLLLEPYNKYRFLSNGHVTIPGQQDKDMFQETMEAMRIMGIPEEEQMGLLRVISGVLQLGNIVFKKERNTDQASMPDNTAAQKVSHLLGINVTDFTRGILTPRIKVGRDYVQKAQTKEQADFAIEALAKATYERMFRWLVLRINKALDKTKRQGASFIGILDIAGFEIFDLNSFEQLCINYTNEKLQQLFNHTMFILEQEEYQREGIEWNFIDFGLDLQPCIDLIEKPAGPPGILALLDEECWFPKATDKSFVEKVMQEQGTHPKFQKPKQLKDKADFCIIHYAGKVDYKADEWLMKNMDPLNDNIATLLHQSSDKFVSELWKDVDRIIGLDQVAGMSETALPGAFKTRKGMFRTVGQLYKEQLAKLMATLRNTNPNFVRCIIPNHEKKAGKLDPHLVLDQLRCNGVLEGIRICRQGFPNRVVFQEFRQRYEILTPNSIPKGFMDGKQACVLMIKALELDSNLYRIGQSKVFFRAGVLAHLEEERDLKITDVIIGFQACCRGYLARKAFAKRQQQLTAMKVLQRNCAAYLKLRNWQWWRLFTKVKPLLQVSRQEEEMMAKEEELVKVREKQLAAENRLTEMETLQSQLMAEKLQLQEQLQAETELCAEAEELRARLTAKKQELEEICHDLEARVEEEEERCQHLQAEKKKMQQNIQELEEQLEEEESARQKLQLEKVTTEAKLKKLEEEQIILEDQNCKLAKEKKLLEDRIAEFTTNLTEEEEKSKSLAKLKNKHEAMITDLEERLRREEKQRQELEKTRRKLEGDSTDLSDQIAELQAQIAELKMQLAKKEEELQAALARVEEEAAQKNMALKKIRELESQISELQEDLESERASRNKAEKQKRDLGEELEALKTELEDTLDSTAAQQELRSKREQEVNILKKTLEEEAKTHEAQIQEMRQKHSQAVEELAEQLEQTKRVKANLEKAKQTLENERGELANEVKVLLQGKGDSEHKRKKVEAQLQELQVKFNEGERVRTELADKVTKLQVELDNVTGLLSQSDSKSSKLTKDFSALESQLQDTQELLQEENRQKLSLSTKLKQVEDEKNSFREQLEEEEEAKHNLEKQIATLHAQVADMKKKMEDSVGCLETAEEVKRKLQKDLEGLSQRHEEKVAAYDKLEKTKTRLQQELDDLLVDLDHQRQSACNLEKKQKKFDQLLAEEKTISAKYAEERDRAEAEAREKETKALSLARALEEAMEQKAELERLNKQFRTEMEDLMSSKDDVGKSVHELEKSKRALEQQVEEMKTQLEELEDELQATEDAKLRLEVNLQAMKAQFERDLQGRDEQSEEKKKQLVRQVREMEAELEDERKQRSMAVAARKKLEMDLKDLEAHIDSANKNRDEAIKQLRKLQAQMKDCMRELDDTRASREEILAQAKENEKKLKSMEAEMIQLQEELAAAERAKRQAQQERDELADEIANSSGKGALALEEKRRLEARIAQLEEELEEEQGNTELINDRLKKANLQIDQINTDLNLERSHAQKNENARQQLERQNKELKVKLQEMEGTVKSKYKASITALEAKIAQLEEQLDNETKERQAACKQVRRTEKKLKDVLLQVDDERRNAEQYKDQADKASTRLKQLKRQLEEAEEEAQRANASRRKLQRELEDATETADAMNREVSSLKNKLRRGDLPFVVPRRMARKGAGDGSDEEVDGKADGAEAKPAE
notes: non-muscle myosin IIA heavy chain, human, precipitated and detected with anti-myosin IIA antibodies; also called non-muscle myosin IIA; source: endogenous, primary human macrophages (lysate or fixed cells)
As for B1, the “coprecipitated amount relative to LSP1-GFP” value in assay [3] is 1.6 fold.
